According to US20160017348A1 (University of California, published 2016):

T1: H3K9me1 peptide (UniProt P59226 2-16, monomethyl-lysine at K9)
T1 peptide (looked up): ARTKQTARKSTGGKA

T2: H3(1-15)K9me2 peptide (UniProt P59226 2-16, dimethyl-lysine at K9)
T2 construct: range 2-16; Residues 1-15 are stated for the peptide in the crystal structure; also called H3K9me2 peptide; H3K9me2
T2 peptide (looked up): ARTKQTARKSTGGKA

T3: H3K9me3 peptide (UniProt P59226 2-16, trimethyl-lysine at K9)
T3 peptide (looked up): ARTKQTARKSTGGKA


Key:
NRPE1-Flag (Pol V) = target: T4, NRPE1-Flag (Pol V) (Arabidopsis thaliana, UniProt Q5D869 1-1976); test: immunoprecipitation and mass spectrometry
T4 construct: Bait for the purification of the Pol V complex; also called Flag-tagged Pol V; not shown: Flag tag
T4 sequence (Q5D869 whole entry): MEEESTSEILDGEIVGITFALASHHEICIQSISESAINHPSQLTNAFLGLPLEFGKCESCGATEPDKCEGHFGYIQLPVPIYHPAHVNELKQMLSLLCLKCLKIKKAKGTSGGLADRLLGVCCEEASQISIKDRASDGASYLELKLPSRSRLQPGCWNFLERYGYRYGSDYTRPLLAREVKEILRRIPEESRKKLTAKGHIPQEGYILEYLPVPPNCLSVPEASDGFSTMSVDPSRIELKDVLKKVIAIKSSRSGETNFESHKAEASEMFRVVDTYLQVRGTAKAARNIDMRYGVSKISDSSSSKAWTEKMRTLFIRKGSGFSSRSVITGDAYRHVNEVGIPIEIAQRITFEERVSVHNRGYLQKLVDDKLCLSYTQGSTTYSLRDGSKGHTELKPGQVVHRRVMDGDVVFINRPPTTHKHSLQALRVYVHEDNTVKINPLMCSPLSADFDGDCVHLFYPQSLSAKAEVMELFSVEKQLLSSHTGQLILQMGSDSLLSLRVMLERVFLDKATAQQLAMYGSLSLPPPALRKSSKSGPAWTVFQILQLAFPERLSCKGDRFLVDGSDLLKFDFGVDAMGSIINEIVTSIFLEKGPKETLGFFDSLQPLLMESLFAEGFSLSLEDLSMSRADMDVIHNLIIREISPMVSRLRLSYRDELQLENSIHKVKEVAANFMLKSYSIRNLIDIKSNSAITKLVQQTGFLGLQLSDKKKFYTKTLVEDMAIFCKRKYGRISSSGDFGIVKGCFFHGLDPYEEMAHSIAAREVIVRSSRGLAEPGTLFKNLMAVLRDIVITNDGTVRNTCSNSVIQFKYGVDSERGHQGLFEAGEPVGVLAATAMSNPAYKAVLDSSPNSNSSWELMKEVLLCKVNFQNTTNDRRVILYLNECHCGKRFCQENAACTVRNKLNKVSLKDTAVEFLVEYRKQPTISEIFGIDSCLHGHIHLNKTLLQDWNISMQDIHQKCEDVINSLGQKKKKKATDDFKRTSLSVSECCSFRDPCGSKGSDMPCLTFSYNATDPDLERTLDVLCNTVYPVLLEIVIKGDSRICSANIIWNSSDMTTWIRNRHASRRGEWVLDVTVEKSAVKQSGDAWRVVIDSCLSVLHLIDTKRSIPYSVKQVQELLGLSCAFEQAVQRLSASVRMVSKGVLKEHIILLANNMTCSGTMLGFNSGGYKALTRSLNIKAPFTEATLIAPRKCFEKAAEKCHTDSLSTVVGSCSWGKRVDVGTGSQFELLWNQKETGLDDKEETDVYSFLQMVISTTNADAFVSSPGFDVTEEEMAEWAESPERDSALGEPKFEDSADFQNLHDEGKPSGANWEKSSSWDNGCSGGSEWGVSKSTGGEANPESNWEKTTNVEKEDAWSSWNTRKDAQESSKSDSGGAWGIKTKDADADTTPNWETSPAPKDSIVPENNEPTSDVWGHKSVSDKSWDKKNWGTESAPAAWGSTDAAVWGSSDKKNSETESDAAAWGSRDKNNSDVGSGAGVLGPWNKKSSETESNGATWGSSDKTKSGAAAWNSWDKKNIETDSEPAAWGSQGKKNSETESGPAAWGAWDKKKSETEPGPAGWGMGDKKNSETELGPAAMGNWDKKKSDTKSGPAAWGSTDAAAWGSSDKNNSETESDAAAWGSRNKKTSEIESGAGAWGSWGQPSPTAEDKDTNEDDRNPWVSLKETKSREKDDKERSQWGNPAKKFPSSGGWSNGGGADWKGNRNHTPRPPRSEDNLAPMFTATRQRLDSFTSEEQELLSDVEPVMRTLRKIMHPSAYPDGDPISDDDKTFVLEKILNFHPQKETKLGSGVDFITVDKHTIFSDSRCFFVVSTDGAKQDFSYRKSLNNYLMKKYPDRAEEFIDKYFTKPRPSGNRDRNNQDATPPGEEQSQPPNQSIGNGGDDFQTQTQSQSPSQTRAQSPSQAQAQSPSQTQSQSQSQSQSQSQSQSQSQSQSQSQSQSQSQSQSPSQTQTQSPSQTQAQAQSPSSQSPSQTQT

H3K9me1 peptide = target: T1, H3K9me1 peptide; test: ITC; reference is the unmodified H3 peptide
Protocol: (§1) All the binding experiments were performed on a Microcal calorimeter ITC 200 instrument at 6° C. First, protein samples were dialyzed overnight against a buffer of 100 mM NaCl, 2 mM β-mercaptoethanol and 20 mM HEPES, pH 7.5, at 4° C. Then the protein samples were diluted and the lyophilized peptides were dissolved with the same buffer. The titration was performed according to standard protocol and the data were fit using the Origin 7.0 program with a 1:1 binding model.

H3(1-15)K9me2 peptide = target: T2, H3(1-15)K9me2 peptide; test: ITC; reference is the unmodified H3 peptide
Protocol: as §1

H3K9me3 peptide = target: T3, H3K9me3 peptide; test: ITC; reference is the unmodified H3 peptide
Protocol: as §1

| Binder | binding result (NRPE1-Flag (Pol V)) | fold higher affinity than with unmodified H3 peptides (H3K9me1 peptide) | fold higher affinity than with unmodified H3 peptides (H3(1-15)K9me2 peptide) | fold higher affinity than with unmodified H3 peptides (H3K9me3 peptide) |
| --- | --- | --- | --- | --- |
| SUVH9 (other, Endogenous protein searched for by mass spectrometry in Pol V purifications; also called SUVH2/9 peptides) MGSSHIPLDPSLNPSPSLIPKLEPVTESTQNLAFQLPNTNPQALISSAVSDFNEATDFSSDYNTVAESARSAFAQRLQRHDDVAVLDSLTGAIVPVEENPEPEPNPYSTSDSSPSVATQRPRPQPRSSELVRITDVGPESERQFREHVRKTRMIYDSLRMFLMMEEAKRNGVGGRRARADGKAGKAGSMMRDCMLWMNRDKRIVGSIPGVQVGDIFFFRFELCVMGLHGHPQSGIDFLTGSLSSNGEPIATSVIVSGGYEDDDDQGDVIMYTGQGGQDRLGRQAEHQRLEGGNLAMERSMYYGIEVRVIRGLKYENEVSSRVYVYDGLFRIVDSWFDVGKSGFGVFKYRLERIEGQAEMGSSVLKFARTLKTNPLSVRPRGYINFDISNGKENVPVYLFNDIDSDQEPLYYEYLAQTSFPPGLFVQQSGNASGCDCVNGCGSGCLCEAKNSGEIAYDYNGTLIRQKPLIHECGSACQCPPSCRNRVTQKGLRNRLEVFRSLETGWGVRSLDVLHAGAFICEYAGVALTREQANILTMNGDTLVYPARFSSARWEDWGDLSQVLADFERPSYPDIPPVDFAMDVSKMRNVACYISHSTDPNVIVQFVLHDHNSLMFPRVMLFAAENIPPMTELSLDYGVVDDWNAKLAICN | no binding |  |  |  |
| SUVH2 (other, Endogenous protein, detected or searched for by mass spectrometry in immunoprecipitates; also called SUVH2 peptides) MSTLLPFPDLNLMPDSQSSTAGTTAGDTVVTGKLEVKSEPIEEWQTPPSSTSDQSANTDLIAEFIRISELFRSAFKPLQVKGLDGVSVYGLDSGAIVAVPEKENRELIEPPPGFKDNRVSTVVVSPKFERPRELARIAILGHEQRKELRQVMKRTRMTYESLRIHLMAESMKNHVLGQGRRRRSDMAAAYIMRDRGLWLNYDKHIVGPVTGVEVGDIFFYRMELCVLGLHGQTQAGIDCLTAERSATGEPIATSIVVSGGYEDDEDTGDVLVYTGHGGQDHQHKQCDNQRLVGGNLGMERSMHYGIEVRVIRGIKYENSISSKVYVYDGLYKIVDWWFAVGKSGFGVFKFRLVRIEGQPMMGSAVMRFAQTLRNKPSMVRPTGYVSFDLSNKKENVPVFLYNDVDGDQEPRHYEYIAKAVFPPGIFGQGGISRTGCECKLSCTDDCLCARKNGGEFAYDDNGHLLKGKHVVFECGEFCTCGPSCKSRVTQKGLRNRLEVFRSKETGWGVRTLDLIEAGAFICEYAGVVVTRLQAEILSMNGDVMVYPGRFTDQWRNWGDLSQVYPDFVRPNYPSLPPLDFSMDVSRMRNVACYISHSKEPNVMVQFVLHDHNHLMFPRVMLFALENISPLAELSLDYGLADEVNGKLAICN | no binding |  |  |  |
| SHH1 SAWADEE domain (residues 125-258) (other) ADLAFEAKSARDYAWYDVSSFLTYRVLRTGELEVRVRFSGFDNRHDEWVNVKTSVRERSIPVEPSECGRVNVGDLLLCFQEREDQALYCDGHVLNIKRGIHDHARCNCVFLVRYELDNTEESLGLERICRRPEE |  | ~17 fold | ~17 fold | ~17 fold |
